{"source": "paper PMC8764063", "biological_target": "T1, IRF3 (human (endogenous in U2OS)), Q14653", "T1 chain": "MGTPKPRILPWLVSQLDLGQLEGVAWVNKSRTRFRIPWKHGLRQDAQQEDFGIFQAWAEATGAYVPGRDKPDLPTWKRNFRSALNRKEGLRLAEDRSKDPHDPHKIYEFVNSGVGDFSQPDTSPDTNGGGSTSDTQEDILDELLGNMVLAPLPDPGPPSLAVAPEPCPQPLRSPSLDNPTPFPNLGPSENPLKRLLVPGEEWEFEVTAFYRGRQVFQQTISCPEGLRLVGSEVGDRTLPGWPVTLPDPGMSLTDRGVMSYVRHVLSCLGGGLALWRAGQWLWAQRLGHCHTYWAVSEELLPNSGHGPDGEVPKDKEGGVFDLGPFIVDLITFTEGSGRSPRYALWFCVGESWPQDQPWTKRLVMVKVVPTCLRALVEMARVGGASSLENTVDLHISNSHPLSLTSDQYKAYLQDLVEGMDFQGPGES", "experiment": "native gel or EMSA; native gel and Western blot for IRF3 of lysates (TBS lysis buffer: 20 mM Tris pH 7.5, 150 mM NaCl, 0.5% NP-40) of wild-type, PARP1 D214N or PARP1 KO U2OS cells with or without poly(dA-dT) (5 ug/ml, six hours); monomer to dimer", "conditions": "remark: other sources report otherwise", "data": [{"binder": "IRF3, Q14653 1-427 (natural protein) MGTPKPRILPWLVSQLDLGQLEGVAWVNKSRTRFRIPWKHGLRQDAQQEDFGIFQAWAEATGAYVPGRDKPDLPTWKRNFRSALNRKEGLRLAEDRSKDPHDPHKIYEFVNSGVGDFSQPDTSPDTNGGGSTSDTQEDILDELLGNMVLAPLPDPGPPSLAVAPEPCPQPLRSPSLDNPTPFPNLGPSENPLKRLLVPGEEWEFEVTAFYRGRQVFQQTISCPEGLRLVGSEVGDRTLPGWPVTLPDPGMSLTDRGVMSYVRHVLSCLGGGLALWRAGQWLWAQRLGHCHTYWAVSEELLPNSGHGPDGEVPKDKEGGVFDLGPFIVDLITFTEGSGRSPRYALWFCVGESWPQDQPWTKRLVMVKVVPTCLRALVEMARVGGASSLENTVDLHISNSHPLSLTSDQYKAYLQDLVEGMDFQGPGES", "values": [{"measurement": "stoichiometry N", "value": 2}]}]}
